The values that follow come from publication PMC7072298 (2020).

In the assay the target is HSP90αM domain (solid phase assays of Figure 2B and 2C). As to the kind of experiment: ELISA.

B1: 45-kDa gelatin-binding FN fragment (FN45) (domain or fragment)
chain: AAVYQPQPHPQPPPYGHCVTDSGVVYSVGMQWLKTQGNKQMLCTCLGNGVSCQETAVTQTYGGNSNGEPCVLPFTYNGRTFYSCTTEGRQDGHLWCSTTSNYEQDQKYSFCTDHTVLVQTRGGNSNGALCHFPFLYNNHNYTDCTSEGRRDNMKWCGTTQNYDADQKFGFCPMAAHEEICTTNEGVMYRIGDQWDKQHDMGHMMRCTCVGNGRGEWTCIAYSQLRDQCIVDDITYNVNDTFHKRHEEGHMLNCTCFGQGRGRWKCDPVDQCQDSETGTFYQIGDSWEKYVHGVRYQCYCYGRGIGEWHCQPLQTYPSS
The molecule B1 returned a dissociation constant (Kd) of 222 nM.

B2: N-terminal FN 30-kDa heparin-binding fragment (FN30) (domain or fragment)
chain: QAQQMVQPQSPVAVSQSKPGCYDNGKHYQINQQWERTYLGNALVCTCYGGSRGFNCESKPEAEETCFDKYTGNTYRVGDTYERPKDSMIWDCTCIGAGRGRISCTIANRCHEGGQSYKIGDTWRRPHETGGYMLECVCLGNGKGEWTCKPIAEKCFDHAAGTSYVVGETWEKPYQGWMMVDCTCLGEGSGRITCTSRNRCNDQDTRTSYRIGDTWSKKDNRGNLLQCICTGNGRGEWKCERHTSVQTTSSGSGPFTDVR
For B2, the affinity, expressed as Kd, was 65.1 nM. Compared with the last molecule, the Kd is about 3.4-fold lower.
